Our source for the Kd values is publication PMC7736470.

The Kd is the concentration at which binding is half-saturated. A lower Kd goes with tighter binding.

The test concerns the target Neuropeptide Y (Homo sapiens), P01303. The following applies: remark: other sources report otherwise.

B1: Neuropeptide Y receptor type 2, P49146 (protein)
chain: MGPIGAEADENQTVEEMKVEQYGPQTTPRGELVPDPEPELIDSTKLIEVQVVLILAYCSIILLGVIGNSLVIHVVIKFKSMRTVTNFFIANLAVADLLVNTLCLPFTLTYTLMGEWKMGPVLCHLVPYAQGLAVQVSTITLTVIALDRHRCIVYHLESKISKRISFLIIGLAWGISALLASPLAIFREYSLIEIIPDFEIVACTEKWPGEEKSIYGTVYSLSSLLILYVLPLGIISFSYTRIWSKLKNHVSPGAANDHYHQRRQKTTKMLVCVVVVFAVSWLPLHAFQLAVDIDSQVLDLKEYKLIFTVFHIIAMCSTFANPLLYGWMNSNYRKAFLSAFRCEQRLDAIHSEVSVTFKAKKNLEVRKNSGPNDSFTEATNV
As for B1, the Kd amounted to 35 nM.
